According to the nanobody polyreactivity screen of Harvey et al. (2022):

Test: yeast display, Sf9 membrane polyspecificity reagent, FACS + sequencing; frameworks hold sequencing errors
Summary of the method: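 Genes from sorted yeast were amplified by colony PCR, read by MiSeq 2 × 250 sequencing and filtered on CDR length. These cells carried a synthetic nanobody library in Saccharomyces cerevisiae BJ5465 and were sorted by FACS into low and high (top ~1%) gates on anti-HA and streptavidin fluorescence. Polyreactivity is labelled according to the gate of origin.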

Row | Sequence | polyreactivity (PSR sort gate)
1 | QVQLVESGGGLVQAGGSLRLSCAASGFTFRYNAMGWYRQAPGKEREVVAAITSGGNTNYADSVKGRFTISRDNAKNTFYLQMNSLKPEDTAVYYCNTAWRDYVARLGGVGYDYWGQGTQVTVSS | high polyreactivity
2 | QVQLVESGGGLVQAGGSLRLSCAASGFTFRYYAMGRSRQAPGKERELVAAITGSGVNTYYADSVKGRFTISRDNAKNTVYLQMNSLKPEDTAVYYCAAESESDPLFDRYYWGQGTQVTVSS | high polyreactivity
3 | QVQLVESGGGLVQAGGSLRLSCAASGFTFRYYAMGWSRQAAGKERELVATITGSGGSTYYADSVKGRFTISRDNAKNTVYLQMNSLKPEDTAVYYCNTVWYSDVRYTRFYYWGQGTQVTVSS | high polyreactivity
4 | QVQLVESGGGLVQAGGSLRLSCAASGFTFRYYAMGWYRPAPGKERELVAGISWSGSRTYYADSVKGRFTISRDSAKNTVYLQMNSLKPEDTAVYYCAKVNSYGPVPDRYDYWGQGTQVTVSS | high polyreactivity
5 | QVQLVESGGGLVQAGGSLRLSCAASGFTFRYYAMGWYRQAPGKEREFVAAITYNGVSTYYADSVKGRFTISRDNAKNTVYLQMNSLKPEDTAVYYCAAGWYYYARPRVYNAREYYYWGQGTQVTVSS | high polyreactivity
6 | QVQLVESGGGLVQAGGSLRLSCAASGFTFRYYAMGWYRQAPGKERELVAAISAGGSTYYADSVKGRFTISRDNAKNTVYLQMNSLKQEDTAVYYCTARYQGFVITYYYWGQGTQVTVSS | high polyreactivity
7 | QVQLVESGGGLVQAGGSLRLSCAASGFTFRYYAMGWYRQAPGKERELVAAITRRSGSTYYADSVKGRFTISRDNAKNTVYLQMNSLKPEDTAVYYCAARASTIMGSWGQGTQVTVSS | high polyreactivity
8 | QVQLVESGGGLVQAGGSLRLSCAASGFTFRYYAMGWYRQAPGKERELVATITGYGGSTYYADSVKGRFTISRDNAKNTVYLQMNSLKPEDTAVYYCNTVWYTDVRYTRFYYWGQGTQVTVSS | high polyreactivity
9 | QVQLVESGGGLVQAGGSLRLSCAASGFTFRYYAMGWYRQEPGKERELVARISSGGSTNYADSVKGRFTISRDNAKNTVYLQMNSLKPEDTSVKYCAARLDHWLIYAYDYWGQGTQVTVSS | high polyreactivity
10 | QVQLVESGGGLVQAGGSLRLSCAASGFTFRYYTMGWYRQAPGKERELVAAITSSGGNTYYADSVKGRFTISRDNAKYTVYLQMNSLKPEDTAVYYCAADGRYYAVFRYDYWGQGTQVTVSS | low polyreactivity
11 | QVQLVESGGGLVQAGGSLRLSCAASGFTFSAYAMGWYRPAPGKERELVAAISWSGSRTYYADSVKGRFTISRDNAKNTVYLQMNSLKQEDTEVYYCAKEPYDTFGFYEYDYWGQGTQVTVSS | low polyreactivity
12 | QVQLVESGGGLVQAGGSLRLSCAASGFTFSAYDMGWYRQAPGKERELVAAISWSGGRTYYADSVKGRFTISRDNAKNTVYLQMNSLKPEDTAVYYCNAASLRYSYTLFDSWGQGTQVTVSS | high polyreactivity
13 | QVQLVESGGGLVQAGGSLRLSCAASGFTFSAYTMGWYRQAPGKERELVAAINWSGANTYYADSVKGRFTISRDNAKNTVYLQMNSLKPEDTAVYYCNAEDDYTYDLSFGGYKYDYWGQGTQVTVSS | low polyreactivity
14 | QVQLVESGGGLVQAGGSLRLSCAASGFTFSDYAMGWYRQAPGKERELVAAISTRGSSTYYADSVKGRFTISRDNAKNTVYLQMNSLKPEDTAVYYCNAVGSYSGYYYWGQGTQVTVSS | high polyreactivity
15 | QVQLVESGGGLVQAGGSLRLSCAASGFTFSENTMGWYRQAPGKERELVADIDSGGSTYYADSVKGRFTISRDNAKNTVYLQMKRLKPEDTAVYYCAKDYHVVGGPTFLFEYDYWGQGSQVTVSS | low polyreactivity
16 | QVQLVESGGGLVQAGGSLRLSCAASGFTFSFYAMGWYRQAPGKERELVAGISKRGGSTYYADSVKGRFTISRDNAKNTVYFLMNSLNPEDTAVYYCAARWYARSLTRFNYWGQGTQVTVSS | high polyreactivity
17 | QVQLVESGGGLVQAGGSLRLSCAASGFTFSFYAMGWYRQAPGKERELVAVISRSGGGTYYADSVKGRFTISRDNAKHTVYLQMNSLKPEDTAVYYCAARLGNRRYDYWGQGTQVTVSS | high polyreactivity
18 | QVQLVESGGGLVQAGGSLRLSCAASGFTFSFYSMGWSRQAPGKERELVAAITSRGTSTYYADSVKGRFTISRDNAKNTVYLQMNSLKPEDTAVYYCAKLLPRGQWPYDYWGQGTQVTVSS | high polyreactivity
19 | QVQLVESGGGLVQAGGSLRLSCAASGFTFSGNAMGWYRQAPGKERELVAAITTTGVRTYYADSVKGRFTISRDNAKNTVYLQMNSLKPEDTAVYYCNKKRTQRVPVRYDYWGQGTQVTVSS | high polyreactivity
20 | QVQLVESGGGLVQAGGSLRLSCAASGFTFSGYAMGWYRQAPGKERELVAVIRGRGGRTYYADSVKGRFTISRDNAKNTVYLQMNSLKPEDTAVYYCAARRDAYYYVPNRFDYWGQGTQVTVSS | high polyreactivity
21 | QVQLVESGGGLVQAGGSLRLSCAASGFTFSLYAMGWYRQAPGKDRELVASISRSGGSTYYADSVKGRFTISRDNAKYTVYIQMYSLKPEDTAVYYCAARWRPYKYDSWGQGTQVTVSS | high polyreactivity
